Residue numbers refer to the chain shown, from its start.
B1: 1.2a (VHH)
VHH: EVQLVESGGGLVQPGRSLRLSCAASGFTFDDYAMHWVRQAPGKDLEWVSGISWNGGSMGYAASVKGRFTISRDNAKNSLYLQMNSLRAEDTALYYCVKDKGPGLIGSTADYYGLDVWGQGTTVTVSS
B2: 1.17a (VHH)
VHH: B1 VHH with V5L, R16G, D44G, G55S, G66D, R87T, A88T, Y112H
B3: 1.7a (VHH)
VHH: B1 VHH with L11V, V12I, D44G, L45R, A62E, K76Q, T91S, I105T, S107T, L114M
B4: 1.15a (VHH)
VHH: B1 VHH with V5L, A23T, D44G, L45R, G55S, A62E, T91S, L114M
B5: 1.10a (VHH)
VHH: B1 VHH with D30A, D44G, L45R, A62E, T91S, I105T, S107T, L114M
B6: 1.24a (VHH)
VHH: B1 VHH with G55S, K98R, D99E, I105T, V116A, T122M
B7: 1.29a (VHH)
VHH: B1 VHH with G55S, A62D, K98R, D99E, I105T, T122M
B8: 1.41a (VHH)
VHH: B1 VHH with M34F, M58Y, A62D, K98R, D99E, I105T, V116A, T122M
B9: 1.47a (VHH)
VHH: B1 VHH with M34F, G55S, M58Y, A62D, K98R, D99E, I105T, V116A, T122M
B10: 1.32a (VHH)
VHH: B1 VHH with G55S, A62D, K98R, D99E, I105T, V116A, T122M
B11: 1.11a (VHH)
VHH: B1 VHH with V5L, L11F, L20I, A62E, Q82K, A88V
B12: 1.18a (VHH)
VHH: B1 VHH with E1Q
B13: 1.3a (VHH)
VHH: B1 VHH with V5L, D44G, L45R, G55S, A62D, G66D, Y112H
B14: 1.34a (VHH)
VHH: B1 VHH with M58Q, A62D, K98R, D99E, I105T, V116A, T122M
B15: 1.35a (VHH)
VHH: B1 VHH with M58K, A62D, K98R, D99E, I105T, V116A, T122M
B16: 1.8a (VHH)
VHH: B1 VHH with D44G, G55S, A62D, G66D, Y112H
B17: 1.40a (VHH)
VHH: B1 VHH with M34L, M58Q, A62D, K98R, D99E, I105T, V116A, T122M
B18: 1.4a (VHH)
VHH: B1 VHH with V5L, D30A, D44G, L45R, A62E, T91S, I105T, S107T, L114M
B19: 1.21a (VHH)
VHH: B1 VHH with K98R, D99E, I105T, T122M
B20: 1.39a (VHH)
VHH: B1 VHH with M34L, M58Y, A62D, K98R, D99E, I105T, V116A, T122M
notes: also called Humabody 1.39a
B21: 1.46a (VHH)
VHH: B1 VHH with M34L, G55A, M58Y, A62D, K98R, D99E, I105T, V116A, T122M
B22: 1.48a (VHH)
VHH: B1 VHH with M34L, G55S, M58Q, A62D, K98R, D99E, I105T, V116A, T122M
B23: 1.23a (VHH)
VHH: B1 VHH with G55S, K98R, D99E, I105T, T122M
B24: 1.33a (VHH)
VHH: B1 VHH with M58Y, A62D, K98R, D99E, I105T, V116A, T122M
B25: 1.27a (VHH)
VHH: B1 VHH with M58R, K98R, D99E, I105T, V116A, T122M
B26: 1.25a (VHH)
VHH: B1 VHH with M58Q, K98R, D99E, I105T, V116A, T122M
B27: 1.16a (VHH)
VHH: B1 VHH with E1Q, D44G, L45R, A62E, T91S, L114M
B28: 1.28a (VHH)
VHH: B1 VHH with G55A, K98R, D99E, I105T, V116A, T122M
B29: 1.42a (VHH)
VHH: B1 VHH with M34F, M58Q, A62D, K98R, D99E, I105T, V116A, T122M
B30: 1.30a (VHH)
VHH: B1 VHH with M34G, K98R, D99E, I105T, V116A, T122M
B31: 1.45a (VHH)
VHH: B1 VHH with M34L, G55A, M58Q, A62D, K98R, D99E, I105T, V116A, T122M
B32: 1.12a (VHH)
VHH: B1 VHH with E1Q, D44G, L45R, A62D, G66D, I105T, Y112H, L114M
B33: 1.14a (VHH)
VHH: B1 VHH with D31G, D44G, L45R, G55S, A62E, T91S, I105T, L114M
B34: 1.5a (VHH)
VHH: B1 VHH with D44G, A62D, G66D, S85R, Y112H
B35: 1.9a (VHH)
VHH: B1 VHH with L11C, L20I, D44G, L45R, A62E, T91S, L114M
B36: 1.43a (VHH)
VHH: B1 VHH with M34F, G55A, M58Y, A62D, K98R, D99E, I105T, V116A, T122M
B37: 1.38a (VHH)
VHH: B1 VHH with M34L, A62D, K98R, D99E, I105T, V116A, T122M
B38: 1.36a (VHH)
VHH: B1 VHH with G55A, A62D, K98R, D99E, I105T, V116A, T122M
B39: 1.50a (VHH)
VHH: B1 VHH with M34F, G55A, M58Q, A62D, K98R, D99E, I105T, V116A, T122M
B40: 1.22a (VHH)
VHH: B1 VHH with K98R, D99E, I105T, V116A, T122M
B41: 1.44a (VHH)
VHH: B1 VHH with M34L, G55S, M58Y, A62D, K98R, D99E, I105T, V116A, T122M
B42: 1.31a (VHH)
VHH: B1 VHH with M34L, K98R, D99E, I105T, V116A, T122M
B43: 1.49a (VHH)
VHH: B1 VHH with M34F, G55S, M58Q, A62D, K98R, D99E, I105T, V116A, T122M
B44: 1.13a (VHH)
VHH: B1 VHH with E1Q, K76Q
B45: 1.37a (VHH)
VHH: B1 VHH with M34F, A62D, K98R, D99E, I105T, V116A, T122M
B46: 1.6a (VHH)
VHH: EVQLVESGGGVVQPGRSLRLSCAASGFTFSSYAMHWVRQAPGKGREWVSGISWNSGSMGYAESVKGRFTISRDNAKNSLYLQMNSLRAEDSALYYCVKDKGPGLTGTTADYYGMDVWGQGTTVTVSS
B47: 1.107b (VHH)
VHH: EVQLVESGGGLVKPGGSLRLSCAASGFTFSDESYTWMRQAPGKGLEWVSYISSGGGVKFYTDSVKGRFTISRDNAKNSLYLQMNSLRAEDTAVYYCAREAPLRLGESPHDAFDISGQGTMVTVSS
B48: 1.114b (VHH)
VHH: B47 VHH with Y34H, T61A
B49: 1.110b (VHH)
VHH: B47 VHH with Y34N, T61A
B50: 1.109b (VHH)
VHH: B47 VHH with Y34F, T61A
B51: 1.115b (VHH)
VHH: B47 VHH with Y34G, T61A
B52: 1.108b (VHH)
VHH: B47 VHH with Y34A, T61A
B53: 1.112b (VHH)
VHH: B47 VHH with Y34I, T61A
B54: 1.111b (VHH)
VHH: B47 VHH with Y34W, T61A
B55: 1.113b (VHH)
VHH: B47 VHH with Y34S, T61A

Molecular target: T1, human PD-1 expressed on cells (CHO TREX human PD1 cell line, full-length human PD-1 sequence) (human, UniProt Q15116 21-288)
T1 construct: Also used for human PD-1 on Jurkat reporter cells, on PathHunter cells and on PHA-stimulated human CD4+ T cells; also called CHO human PD1 cells; CHO human PD-1 cells
T1 sequence (Q15116 21-288): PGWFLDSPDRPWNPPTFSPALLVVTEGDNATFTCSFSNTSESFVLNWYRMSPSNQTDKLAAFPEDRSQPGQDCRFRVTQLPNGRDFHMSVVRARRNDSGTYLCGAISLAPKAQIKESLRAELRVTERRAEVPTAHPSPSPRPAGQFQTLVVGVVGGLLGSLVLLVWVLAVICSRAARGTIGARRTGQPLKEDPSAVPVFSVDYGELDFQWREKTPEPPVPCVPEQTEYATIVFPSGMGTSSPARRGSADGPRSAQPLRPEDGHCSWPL
Experiment: worded summary of the screens

binding result | Binder
binds | B1
binds | B2
binds | B3
binds | B4
binds | B5
binds | B6
binds | B7
binds | B8
binds | B9
binds | B10
binds | B11
binds | B12
binds | B13
binds | B14
binds | B15
binds | B16
binds | B17
binds | B18
binds | B19
binds | B20
binds | B21
binds | B22
binds | B23
binds | B24
binds | B25
binds | B26
binds | B27
binds | B28

binding result | Binder
binds | B29
binds | B30
binds | B31
binds | B32
binds | B33
binds | B34
binds | B35
binds | B36
binds | B37
binds | B38
binds | B39
binds | B40
binds | B41
binds | B42
binds | B43
binds | B44
binds | B45
binds | B46
binds | B47
binds | B48
binds | B49
binds | B50
binds | B51
binds | B52
binds | B53
binds | B54
binds | B55

From patent publication US20220306744A1 (CRESCENDO BIOLOGICS, published 2022)
